Measured values: patent US20030119169A1 (IDUN PHARMACEUTICALS, published 2003)
No end group written: not given here.

How the values were obtained:
[1] = target: T1, CPP32, bacterially expressed recombinant active enzyme (human, UniProt P42574 29-277, limits assumed); assay: inhibition of hydrolysis of 10 µM DEVD-AMC, continuous fluorometric assay, bacterial lysate, 30 min preincubation
T1 construct: Bacterially expressed (as a GST fusion, as described for Mch3) and used as bacterial lysate; also called recombinant CPP32
T1 sequence (looked up): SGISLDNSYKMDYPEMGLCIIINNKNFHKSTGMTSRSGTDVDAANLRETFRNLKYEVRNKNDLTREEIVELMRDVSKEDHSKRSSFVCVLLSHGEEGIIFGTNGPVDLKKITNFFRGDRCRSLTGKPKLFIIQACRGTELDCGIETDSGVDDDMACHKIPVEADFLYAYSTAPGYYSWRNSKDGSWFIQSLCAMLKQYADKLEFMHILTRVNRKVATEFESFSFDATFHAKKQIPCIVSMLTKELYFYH

[2] = target: T2, Mch3α, bacterially expressed recombinant active enzyme (human, UniProt P55210 24-303, limits assumed); assay: inhibition of hydrolysis of 50 µM DEVD-AMC, continuous fluorometric assay, bacterial lysate, 30 min preincubation
T2 construct: Expressed in E. coli as a GST fusion (Mch3α1 or Mch3α2); also called recombinant Mch3α
T2 sequence: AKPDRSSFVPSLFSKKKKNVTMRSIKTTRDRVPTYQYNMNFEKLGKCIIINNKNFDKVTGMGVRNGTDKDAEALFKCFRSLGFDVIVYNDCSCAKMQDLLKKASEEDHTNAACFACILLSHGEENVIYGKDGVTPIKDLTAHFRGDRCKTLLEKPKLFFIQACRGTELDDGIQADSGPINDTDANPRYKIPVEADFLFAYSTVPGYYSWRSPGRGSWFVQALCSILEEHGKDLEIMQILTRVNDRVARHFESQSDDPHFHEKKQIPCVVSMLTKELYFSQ

B1: tetrapeptide DEVD aldehyde (peptide)
peptide: DEVD-aldehyde
notes: also called DEVD-CHO
[1]
  Ki: 0.59 nM
[2]
  Ki: 1.8 nM
